Source: the supplement of paper PMC10567573

B1: CCDC6 (parent)
chain: TLFKKIQALQKEKETLAVNYEKEE
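Note: lentivirally expressed fusions sorted by FACS into six bins by GFP to DsRed ratio, PSI derived from sequencing read proportions per bin multiplied by bin number.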

Variants of: B1
Experiment: protein stability index of a GFP-peptide fusion (GPS, HEK-293T) (PSI 1-6); higher = more stable
Conditions: c terminus: a fixed tail appended
TAFKKIQALQKEKETLAVNYEKEE showed a protein stability index of 4.08. Variant TCFKKIQALQKEKETLAVNYEKEE has a protein stability index of 4.55. TDFKKIQALQKEKETLAVNYEKEE gave a protein stability index of 5.26. Work on TEFKKIQALQKEKETLAVNYEKEE yielded a protein stability index of 5.56. With TFFKKIQALQKEKETLAVNYEKEE the protein stability index was 4.25. TGFKKIQALQKEKETLAVNYEKEE gave a protein stability index of 5.25. Work on THFKKIQALQKEKETLAVNYEKEE yielded a protein stability index of 4.96. TIFKKIQALQKEKETLAVNYEKEE gave a protein stability index of 3.4. Variant TKFKKIQALQKEKETLAVNYEKEE has a protein stability index of 5.2. TMFKKIQALQKEKETLAVNYEKEE gave a protein stability index of 4.28. TNFKKIQALQKEKETLAVNYEKEE showed a protein stability index of 5.26. TPFKKIQALQKEKETLAVNYEKEE showed a protein stability index of 5.29. TQFKKIQALQKEKETLAVNYEKEE gave a protein stability index of 4.91. In the case of TRFKKIQALQKEKETLAVNYEKEE, the protein stability index is reported as 5.13. Variant TSFKKIQALQKEKETLAVNYEKEE has a protein stability index of 4.83. TTFKKIQALQKEKETLAVNYEKEE showed a protein stability index of 5.1. TVFKKIQALQKEKETLAVNYEKEE showed a protein stability index of 3.82. TWFKKIQALQKEKETLAVNYEKEE showed a protein stability index of 3.68. TYFKKIQALQKEKETLAVNYEKEE gave a protein stability index of 3.74. TLAKKIQALQKEKETLAVNYEKEE gave a protein stability index of 4.68. With TLCKKIQALQKEKETLAVNYEKEE the protein stability index was 3.62. With TLDKKIQALQKEKETLAVNYEKEE the protein stability index was 5.28. For TLEKKIQALQKEKETLAVNYEKEE, the protein stability index was 5.42. Variant TLGKKIQALQKEKETLAVNYEKEE has a protein stability index of 5.23. For TLHKKIQALQKEKETLAVNYEKEE, the protein stability index was 4.9. For TLIKKIQALQKEKETLAVNYEKEE, the protein stability index was 3.51. TLKKKIQALQKEKETLAVNYEKEE gave a protein stability index of 4.78. With TLLKKIQALQKEKETLAVNYEKEE the protein stability index was 3.08. With TLMKKIQALQKEKETLAVNYEKEE the protein stability index was 3.41. In the case of TLNKKIQALQKEKETLAVNYEKEE, the protein stability index is reported as 4.59. In the case of TLPKKIQALQKEKETLAVNYEKEE, the protein stability index is reported as 5.44. In the case of TLQKKIQALQKEKETLAVNYEKEE, the protein stability index is reported as 4.78. TLRKKIQALQKEKETLAVNYEKEE gave a protein stability index of 4.38. Work on TLSKKIQALQKEKETLAVNYEKEE yielded a protein stability index of 4.62. With TLTKKIQALQKEKETLAVNYEKEE the protein stability index was 5.1. Work on TLVKKIQALQKEKETLAVNYEKEE yielded a protein stability index of 3.76. For TLWKKIQALQKEKETLAVNYEKEE, the protein stability index was 2.26. For TLYKKIQALQKEKETLAVNYEKEE, the protein stability index was 3.67. For TLFAKIQALQKEKETLAVNYEKEE, the protein stability index was 3.01. In the case of TLFCKIQALQKEKETLAVNYEKEE, the protein stability index is reported as 2.73. TLFDKIQALQKEKETLAVNYEKEE gave a protein stability index of 4.37. With TLFEKIQALQKEKETLAVNYEKEE the protein stability index was 3.33. Variant TLFFKIQALQKEKETLAVNYEKEE has a protein stability index of 3.44. TLFGKIQALQKEKETLAVNYEKEE showed a protein stability index of 3.75. TLFHKIQALQKEKETLAVNYEKEE showed a protein stability index of 3.88. With TLFIKIQALQKEKETLAVNYEKEE the protein stability index was 2.76. In the case of TLFLKIQALQKEKETLAVNYEKEE, the protein stability index is reported as 3.05. TLFMKIQALQKEKETLAVNYEKEE showed a protein stability index of 2.8. TLFNKIQALQKEKETLAVNYEKEE gave a protein stability index of 3.68. TLFPKIQALQKEKETLAVNYEKEE gave a protein stability index of 4.83. Variant TLFQKIQALQKEKETLAVNYEKEE has a protein stability index of 3.56. Work on TLFRKIQALQKEKETLAVNYEKEE yielded a protein stability index of 3.35. For TLFSKIQALQKEKETLAVNYEKEE, the protein stability index was 3.82. TLFTKIQALQKEKETLAVNYEKEE showed a protein stability index of 4.27. TLFVKIQALQKEKETLAVNYEKEE showed a protein stability index of 3.52. Work on TLFWKIQALQKEKETLAVNYEKEE yielded a protein stability index of 2.74. For TLFYKIQALQKEKETLAVNYEKEE, the protein stability index was 2.58. In the case of TLFKAIQALQKEKETLAVNYEKEE, the protein stability index is reported as 2.43. TLFKCIQALQKEKETLAVNYEKEE gave a protein stability index of 2.52. TLFKDIQALQKEKETLAVNYEKEE gave a protein stability index of 4.85. For TLFKEIQALQKEKETLAVNYEKEE, the protein stability index was 4.27. Variant TLFKFIQALQKEKETLAVNYEKEE has a protein stability index of 1.61. TLFKGIQALQKEKETLAVNYEKEE showed a protein stability index of 4.19. For TLFKHIQALQKEKETLAVNYEKEE, the protein stability index was 2.88. For TLFKIIQALQKEKETLAVNYEKEE, the protein stability index was 1.79. TLFKLIQALQKEKETLAVNYEKEE showed a protein stability index of 2.27. With TLFKMIQALQKEKETLAVNYEKEE the protein stability index was 2.22. Work on TLFKNIQALQKEKETLAVNYEKEE yielded a protein stability index of 3.78. For TLFKPIQALQKEKETLAVNYEKEE, the protein stability index was 4.74. For TLFKQIQALQKEKETLAVNYEKEE, the protein stability index was 3.36. TLFKRIQALQKEKETLAVNYEKEE gave a protein stability index of 2.75. In the case of TLFKSIQALQKEKETLAVNYEKEE, the protein stability index is reported as 3.47. TLFKTIQALQKEKETLAVNYEKEE gave a protein stability index of 2.95. In the case of TLFKVIQALQKEKETLAVNYEKEE, the protein stability index is reported as 1.76. TLFKWIQALQKEKETLAVNYEKEE gave a protein stability index of 3.67. With TLFKYIQALQKEKETLAVNYEKEE the protein stability index was 2.15. Work on TLFKKAQALQKEKETLAVNYEKEE yielded a protein stability index of 4.59. Variant TLFKKCQALQKEKETLAVNYEKEE has a protein stability index of 4.44. TLFKKDQALQKEKETLAVNYEKEE gave a protein stability index of 5.34. Work on TLFKKEQALQKEKETLAVNYEKEE yielded a protein stability index of 5.39. TLFKKFQALQKEKETLAVNYEKEE gave a protein stability index of 3.99. TLFKKGQALQKEKETLAVNYEKEE showed a protein stability index of 5.06. Work on TLFKKHQALQKEKETLAVNYEKEE yielded a protein stability index of 4.17. TLFKKKQALQKEKETLAVNYEKEE gave a protein stability index of 4.92. Work on TLFKKLQALQKEKETLAVNYEKEE yielded a protein stability index of 3.59. With TLFKKMQALQKEKETLAVNYEKEE the protein stability index was 4.32. Variant TLFKKNQALQKEKETLAVNYEKEE has a protein stability index of 4.36. TLFKKPQALQKEKETLAVNYEKEE showed a protein stability index of 4.78. TLFKKQQALQKEKETLAVNYEKEE gave a protein stability index of 4.28. Work on TLFKKRQALQKEKETLAVNYEKEE yielded a protein stability index of 4.79. With TLFKKSQALQKEKETLAVNYEKEE the protein stability index was 4.81. TLFKKTQALQKEKETLAVNYEKEE gave a protein stability index of 4.75. Work on TLFKKVQALQKEKETLAVNYEKEE yielded a protein stability index of 3.85. Variant TLFKKWQALQKEKETLAVNYEKEE has a protein stability index of 3.4.
